{"source": "patent US7378087", "key": {"[1]": {"molecular_target": "H-2K^b MHC class I molecule (mouse) (UniProt P01901)", "sequence (P01901 22-305 limits assumed)": "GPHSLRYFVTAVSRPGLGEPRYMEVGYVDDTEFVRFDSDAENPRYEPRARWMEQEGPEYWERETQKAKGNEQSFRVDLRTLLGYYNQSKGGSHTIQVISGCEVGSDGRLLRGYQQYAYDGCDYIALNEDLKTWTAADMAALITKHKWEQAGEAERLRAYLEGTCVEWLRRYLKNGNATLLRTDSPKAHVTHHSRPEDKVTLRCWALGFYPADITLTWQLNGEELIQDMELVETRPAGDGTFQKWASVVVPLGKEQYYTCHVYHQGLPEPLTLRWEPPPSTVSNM", "experiment": "FACS on RMA cells; IFN -, peptide -, hβ2m -"}, "[2]": {"molecular_target": "H-2K^b MHC class I molecule (mouse) (UniProt P01901)", "experiment": "FACS on RMA-S cells; IFN -, peptide -, hβ2m -"}, "[3]": {"molecular_target": "H-2K^b MHC class I molecule (mouse) (UniProt P01901)", "experiment": "FACS on RMA cells; IFN +, peptide -, hβ2m -"}, "[4]": {"molecular_target": "H-2K^b MHC class I molecule (mouse) (UniProt P01901)", "experiment": "FACS on CMT.64 cells; IFN -, peptide -, hβ2m -"}, "[5]": {"molecular_target": "H-2K^b MHC class I molecule (mouse) (UniProt P01901)", "experiment": "FACS on RMA-S cells; IFN +, peptide -, hβ2m +"}, "[6]": {"molecular_target": "H-2K^b MHC class I molecule (mouse) (UniProt P01901)", "experiment": "FACS on CMT.64 cells; IFN +, peptide -, hβ2m -"}, "[7]": {"molecular_target": "H-2K^b MHC class I molecule (mouse) (UniProt P01901)", "experiment": "FACS on RMA-S cells; IFN +, peptide +, hβ2m +"}, "[8]": {"molecular_target": "H-2K^b MHC class I molecule (mouse) (UniProt P01901)", "experiment": "FACS on CMT.64 cells; IFN * (so in the source), peptide +, hβ2m +"}, "[9]": {"molecular_target": "H-2K^b MHC class I molecule (mouse) (UniProt P01901)", "experiment": "FACS on RMA cells; IFN +, peptide -, hβ2m +"}, "[10]": {"molecular_target": "H-2K^b MHC class I molecule (mouse) (UniProt P01901)", "experiment": "FACS on RMA cells; IFN +, peptide +, hβ2m +"}, "[11]": {"molecular_target": "H-2K^b MHC class I molecule (mouse) (UniProt P01901)", "experiment": "FACS on RMA-S cells; IFN +, peptide -, hβ2m -"}, "[12]": {"molecular_target": "H-2K^b MHC class I molecule (mouse) (UniProt P01901)", "experiment": "FACS on RMA cells; IFN -, peptide +, hβ2m +"}, "[13]": {"molecular_target": "H-2K^b MHC class I molecule (mouse) (UniProt P01901)", "experiment": "FACS on RMA cells; IFN +, peptide +, hβ2m -"}, "[14]": {"molecular_target": "H-2K^b MHC class I molecule (mouse) (UniProt P01901)", "experiment": "FACS on CMT.64 cells; IFN -, peptide +, hβ2m +"}, "[15]": {"molecular_target": "H-2K^b MHC class I molecule (mouse) (UniProt P01901)", "experiment": "FACS on RMA-S cells; IFN -, peptide +, hβ2m +"}, "[16]": {"molecular_target": "H-2K^b MHC class I molecule (mouse) (UniProt P01901)", "experiment": "FACS on RMA-S cells; IFN +, peptide +, hβ2m -"}}, "data": [{"substance": "142-23.3 anti H-2 K^b monoclonal antibody", "values": [{"measurement": "fluorescence units (arbitrary fluorescence units)", "setting": "[1]", "value": 164}, {"measurement": "fluorescence units (arbitrary fluorescence units)", "setting": "[2]", "value": 12}, {"measurement": "fluorescence units (arbitrary fluorescence units)", "setting": "[3]", "value": 346}, {"measurement": "fluorescence units (arbitrary fluorescence units)", "setting": "[4]", "value": 5}, {"measurement": "fluorescence units (arbitrary fluorescence units)", "setting": "[5]", "value": 10}, {"measurement": "fluorescence units (arbitrary fluorescence units)", "setting": "[6]", "value": 26}, {"measurement": "fluorescence units (arbitrary fluorescence units)", "setting": "[7]", "value": 41}, {"measurement": "fluorescence units (arbitrary fluorescence units)", "setting": "[8]", "value": 35}, {"measurement": "fluorescence units (arbitrary fluorescence units)", "setting": "[9]", "value": 438}, {"measurement": "fluorescence units (arbitrary fluorescence units)", "setting": "[10]", "value": 780}, {"measurement": "fluorescence units (arbitrary fluorescence units)", "setting": "[11]", "value": 12}, {"measurement": "fluorescence units (arbitrary fluorescence units)", "setting": "[12]", "value": 242}, {"measurement": "fluorescence units (arbitrary fluorescence units)", "setting": "[13]", "value": 606}, {"measurement": "fluorescence units (arbitrary fluorescence units)", "setting": "[14]", "value": 8}, {"measurement": "fluorescence units (arbitrary fluorescence units)", "setting": "[15]", "value": 70}, {"measurement": "fluorescence units (arbitrary fluorescence units)", "setting": "[16]", "value": 10}]}]}
